# Test results published in patent US20260139049A1 (PEDIATRIC IMMUNITY AND HEALTHCARE GUANGZHOU BIOTECHNOLOGY, published 2026).
# Positions count from the first letter of the chain named. Read-outs that look alike come from different tables or passages of the source.
# T1: human CLDN6 (human, UniProt P56747 1-220)
# T1 construct: whole, on cells; four-transmembrane protein; also called claudin-6; HEK293T-CLDN6
# T1 sequence (looked up): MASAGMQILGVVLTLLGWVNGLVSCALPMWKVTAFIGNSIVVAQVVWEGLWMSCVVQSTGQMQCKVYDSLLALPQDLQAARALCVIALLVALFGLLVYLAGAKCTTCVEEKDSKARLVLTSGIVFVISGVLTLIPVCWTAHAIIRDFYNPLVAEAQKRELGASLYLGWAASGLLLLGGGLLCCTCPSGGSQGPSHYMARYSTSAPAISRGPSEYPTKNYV
# T2: human CLDN9 (human, UniProt O95484 1-217)
# T2 construct: whole, on cells; also called HEK293T-CLDN9
# T2 sequence (looked up): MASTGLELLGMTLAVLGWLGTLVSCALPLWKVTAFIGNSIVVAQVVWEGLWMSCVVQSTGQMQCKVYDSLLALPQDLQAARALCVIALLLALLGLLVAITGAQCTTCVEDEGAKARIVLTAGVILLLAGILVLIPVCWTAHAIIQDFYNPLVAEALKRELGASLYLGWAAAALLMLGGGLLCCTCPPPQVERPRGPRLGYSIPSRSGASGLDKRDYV
# T3: mouse CLDN6 (mouse, UniProt Q9Z262 1-219)
# T3 construct: whole, on cells; also called CHO-K1-Mouse CLDN6
# T3 sequence (looked up): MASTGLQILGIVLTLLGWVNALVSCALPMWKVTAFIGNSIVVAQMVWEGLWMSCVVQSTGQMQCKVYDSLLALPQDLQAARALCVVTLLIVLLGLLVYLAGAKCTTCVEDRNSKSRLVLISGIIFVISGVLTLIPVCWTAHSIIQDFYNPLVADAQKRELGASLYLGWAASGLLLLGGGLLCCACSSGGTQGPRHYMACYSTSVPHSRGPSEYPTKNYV
# T4: human CLDN3 (human, UniProt O15551 1-220)
# T4 construct: whole, on cells; also called HEK293T-CLDN3
# T4 sequence (looked up): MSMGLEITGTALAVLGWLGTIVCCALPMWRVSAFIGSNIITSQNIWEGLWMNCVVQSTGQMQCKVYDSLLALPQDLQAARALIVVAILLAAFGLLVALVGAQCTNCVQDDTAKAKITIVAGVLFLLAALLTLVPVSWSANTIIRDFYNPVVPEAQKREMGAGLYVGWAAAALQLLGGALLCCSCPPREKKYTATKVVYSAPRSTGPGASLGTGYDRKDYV
# T5: human CLDN4 (human, UniProt O14493 1-209)
# T5 construct: whole, on cells; also called HEK293T-CLDN4
# T5 sequence (looked up): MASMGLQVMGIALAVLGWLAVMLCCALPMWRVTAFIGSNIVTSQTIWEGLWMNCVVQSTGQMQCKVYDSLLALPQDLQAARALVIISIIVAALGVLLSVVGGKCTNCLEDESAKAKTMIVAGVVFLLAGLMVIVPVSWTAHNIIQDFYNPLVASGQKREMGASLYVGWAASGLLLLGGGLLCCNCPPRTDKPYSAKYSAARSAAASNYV
# B1: 51C10-M1 (antibody, human IgG1, kappa, V domains shown)
# VH: EVQLQQSGPELVKPGASVKMSCKASGYTFTDYNMHWVKKSHGKSLEWIGYVNPNNAATSYNQKFKGKATLTVNKSSSTAYMELRSLTSEDSAVYNCARWDGYVYYYGLDYWGQGTSVTVSS
# VL: DIQMTQSSSYLSVSLGGRVTITCKASDHINNWLAWYQQKPGNAPRLLISGATSLETGVPSRFSGSGSGKDYTLSITSLQTEDVATYYCQQYWSTPYTFGGGTKLEIKR
# notes: 51C10H4 with G of NG in heavy-chain CDR2 changed to A; also called improved antibody 51C10-M1
# B2: 54B5A7 (antibody, human IgG1, kappa, V domains shown)
# VH: B1 VH with V51I, A56G, S59N, L108M
# VL: B1 VL with S93N
# notes: chimeric IgG1
# B3: RecA101 (antibody, human IgG1, kappa, V domains shown)
# VH: B1 VH with A56G
# VL: B1 VL with S93N
# notes: heavy chain of 51C10H4 with light chain of 54B5A7; IgG1; also called improved chimeric monoclonal antibody RecA101; recombined chimeric monoclonal antibody RecA101
# B4: 47A5B10 (antibody, human IgG1, kappa, V domains shown)
# VH: QGQLQQSGAELARPGASVKLSCKASGYTFTSYGISWVKQRTGQGLEWIGEIYPRSGNTYHNEKFKGKATLTADKSSSTAYMELRSLTSEDSAVYFCARSSYDYYAMDYWGQGTSVTVSS
# VL: EIVVTQSPALMAASPGEKVTITCSVSSIISSSKLHWYQQKSETSPKPWIYGTSNLASGVPIRFSGSGSGTSYSLTISSMEAEDAATYYCQQWSSYPLTFGAGTKLELKR
# notes: chimeric: murine variable regions on human IgG1 constant regions
# How the values were obtained:
# human CLDN6 [1] = target: T1, human CLDN6; experiment: FACS on 293T-CLDN6 cells, 10 µg/mL
# human CLDN9 [2] = target: T2, human CLDN9; experiment: FACS on 293T-CLDN9 cells, 10 µg/mL
# Description: (§1) 50 μL of an antibody to be tested was added to a 96-well plate, then 1× 10⁵ cells were added to each well, and incubation was conducted at 4° C. for 1 h. Cells were washed three times with PBS. […] Finally, cells were washed three times with PBS, and signals were read using FACS. Binding capacities of the antibody to CLDN9, CLDN3, and CLDN4 were analyzed separately based on detection data.
# human CLDN6 [3] = target: T1, human CLDN6; experiment: cell-based or functional assay
# human CLDN6 [4] = target: T1, human CLDN6; experiment: cell-based or functional assay; remark: listed apart in the source
# human CLDN6 [5] = target: T1, human CLDN6; experiment: FACS on HEK293T-CLDN6 cells
# Description: (§2) To detect a binding capacity of a chimeric or humanized antibody to CLDN6, a CLDN6-expressing cell line HEK293T-CLDN6 and a CLDN6-negative control cell line HEK293T were washed three times with PBS. 1×10⁵ test cells and 50 μL of an antibody solution to be tested were added to a 96-well plate, and incubated at 4° C. for 1 h. The cells were then washed three times with PBS. […] Finally, cells were washed three times with PBS, and signals were read using FACS.
# (§3) An EC50 value (a concentration of an antibody that binds to half of binding sites at equilibrium) is calculated through nonlinear regression.
# human CLDN6 [6] = target: T1, human CLDN6; experiment: FACS on HEK293T-CLDN6 cells; remark: listed apart in the source
# Description: as §2, §3
# [7] = target: T6, monkey CLDN6 (Cyno CLDN6) (monkey (Cyno)); experiment: FACS on CHO-K1-Cyno CLDN6 cells
# T6 construct: whole, on cells; also called CHO-K1-Cyno CLDN6
# mouse CLDN6 = target: T3, mouse CLDN6; experiment: FACS on CHO-K1-Mouse CLDN6 cells
# human CLDN3 = target: T4, human CLDN3; experiment: FACS on 293T-CLDN3 cells, 10 µg/mL
# Description: as §1
# human CLDN4 = target: T5, human CLDN4; experiment: FACS on 293T-CLDN4 cells, 10 µg/mL
# Description: as §1
# human CLDN6 [8] = target: T1, human CLDN6; experiment: FACS on 293T-CLDN6 cells, 10 µg/mL; remark: listed apart in the source
# human CLDN9 [9] = target: T2, human CLDN9; experiment: FACS on 293T-CLDN9 cells, 10 µg/mL; remark: listed apart in the source
# Description: as §1
# human CLDN6 [10] = target: T1, human CLDN6; experiment: ratio of FACS signals on CLDN6 cells over CLDN9 cells
# Description: as §1
# human CLDN6 [11] = target: T1, human CLDN6; experiment: FACS on PA-1 tumour cells; target on the cells taken as CLDN6
# Description: (§4) The specific binding of a chimeric antibody to a tumor cell was detected by FACS, and an EC50 value was calculated accordingly to evaluate an inhibitory effect of the chimeric antibody on the tumor cell.
# as §1, with “1×10⁵” for “1× 10⁵”, “A binding capacity” for “Binding capacities”, “each tumor cell was” for “CLDN9, CLDN3, and CLDN4 were”, “analyzed” for “analyzed separately”
# human CLDN6 [12] = target: T1, human CLDN6; experiment: as above; remark: listed apart in the source
# Description: as §1, with “1×10⁵” for “1× 10⁵”, “A binding capacity” for “Binding capacities”, “each tumor cell was” for “CLDN9, CLDN3, and CLDN4 were”, “analyzed” for “analyzed separately”
# human CLDN6 [13] = target: T1, human CLDN6; experiment: FACS on HepG2 tumour cells; target on the cells taken as CLDN6
# Description: as §4
# as §1, with “1×10⁵” for “1× 10⁵”, “A binding capacity” for “Binding capacities”, “each tumor cell was” for “CLDN9, CLDN3, and CLDN4 were”, “analyzed” for “analyzed separately”
# human CLDN6 [14] = target: T1, human CLDN6; experiment: as above; remark: listed apart in the source
# Description: as §1, with “1×10⁵” for “1× 10⁵”, “A binding capacity” for “Binding capacities”, “each tumor cell was” for “CLDN9, CLDN3, and CLDN4 were”, “analyzed” for “analyzed separately”
# human CLDN6 [15] = target: T1, human CLDN6; experiment: as above; remark: listed apart in the source
# Description: as §1, with “1×10⁵” for “1× 10⁵”, “A binding capacity” for “Binding capacities”, “each tumor cell was” for “CLDN9, CLDN3, and CLDN4 were”, “analyzed” for “analyzed separately”
# human CLDN6 [16] = target: T1, human CLDN6; experiment: ratio of FACS Geom.Mean on 293T-CLDN6 over 293T-CLDN9, 10 µg/mL
# Description: as §1
# human CLDN6 [17] = target: T1, human CLDN6; experiment: FACS on HEK293T-CLDN6 cells; remark: listed apart in the source
# Description: as §2, §3
# human CLDN6 [18] = target: T1, human CLDN6; experiment: FACS on HEK293T-CLDN6 cells; remark: listed apart in the source
# Description: as §2
binder,measurement,setting,value
B1,Geom.Mean,human CLDN6 [1],41400
same,Geom.Mean,human CLDN9 [2],1170
B2,ADCC dose-response fit: EC50,human CLDN6 [3],0.0413 µg/mL
same,ADCC dose-response fit: LogEC50,human CLDN6 [3],-1.39
same,CDC dose-response fit: EC50,human CLDN6 [4],0.252 µg/mL
same,CDC dose-response fit: LogEC50,human CLDN6 [4],-0.6
same,EC50,human CLDN6 [5],0.352 µg/mL
same,EC50,human CLDN6 [6],0.285 µg/mL
same,EC50,[7],0.78 µg/mL
same,EC50,mouse CLDN6,1.5 µg/mL
same,Geom.Mean,human CLDN3,101
same,Geom.Mean,human CLDN4,104
same,Geom.Mean,human CLDN6 [8],37500
same,Geom.Mean,human CLDN9 [9],141
same,CLDN6/CLDN9 signal ratio,human CLDN6 [10],~200 fold
same,EC50,human CLDN6 [11],0.64 µg/mL
same,EC50,human CLDN6 [12],0.415 µg/mL
same,EC50,human CLDN6 [13],0.449 µg/mL
same,EC50,human CLDN6 [14],0.47 µg/mL
same,EC50,human CLDN6 [15],0.552 µg/mL
same,CLDN6/CLDN9 ratio,human CLDN6 [16],265
B3,EC50,human CLDN6 [17],0.73 µg/mL
same,Geom.Mean,human CLDN6 [1],41800
same,Geom.Mean,human CLDN9 [2],1740
B4,FACS signal,human CLDN6 [18],33000
same,EC50,human CLDN6 [5],0.674 µg/mL
same,EC50,[7],0.343 µg/mL
same,EC50,mouse CLDN6,0.633 µg/mL
same,EC50,human CLDN6 [11],0.737 µg/mL
same,EC50,human CLDN6 [13],1.38 µg/mL
